The chains are these.
B1: KB001 mouse Fab VL T24K (Fab, V domains shown)
VH: EVQLKQSGPGLVAPSQSLSITCTVSGFSLSIYSVHWVRQPPGKGLEWLGMIWGGGSSDYNSALKSRLSISKDNSKSQVFLKMNSLQTDDTAMYYCARNGNFYAMDYWGQGTSVTVSS
VL: QIVLTQSPAIMSASLGERVTMTCKASSSVSSSFLHWYQQKPGSSPQLWIYSTSNLASGVPARFSGSGSGTSYSLTISSMEAEDAATYYCHQYHHSPYIYTFGGGTKLEIK
B2: KB001 mouse Fab VL A25F (Fab, V domains shown)
VH: EVQLKQSGPGLVAPSQSLSITCTVSGFSLSIYSVHWVRQPPGKGLEWLGMIWGGGSSDYNSALKSRLSISKDNSKSQVFLKMNSLQTDDTAMYYCARNGNFYAMDYWGQGTSVTVSS
VL: QIVLTQSPAIMSASLGERVTMTCTFSSSVSSSFLHWYQQKPGSSPQLWIYSTSNLASGVPARFSGSGSGTSYSLTISSMEAEDAATYYCHQYHHSPYIYTFGGGTKLEIK
B3: KB001 mouse Fab VL T24H (Fab, V domains shown)
VH: EVQLKQSGPGLVAPSQSLSITCTVSGFSLSIYSVHWVRQPPGKGLEWLGMIWGGGSSDYNSALKSRLSISKDNSKSQVFLKMNSLQTDDTAMYYCARNGNFYAMDYWGQGTSVTVSS
VL: QIVLTQSPAIMSASLGERVTMTCHASSSVSSSFLHWYQQKPGSSPQLWIYSTSNLASGVPARFSGSGSGTSYSLTISSMEAEDAATYYCHQYHHSPYIYTFGGGTKLEIK
B4: KB001 mouse Fab VL A25T (Fab, V domains shown)
VH: EVQLKQSGPGLVAPSQSLSITCTVSGFSLSIYSVHWVRQPPGKGLEWLGMIWGGGSSDYNSALKSRLSISKDNSKSQVFLKMNSLQTDDTAMYYCARNGNFYAMDYWGQGTSVTVSS
VL: QIVLTQSPAIMSASLGERVTMTCTTSSSVSSSFLHWYQQKPGSSPQLWIYSTSNLASGVPARFSGSGSGTSYSLTISSMEAEDAATYYCHQYHHSPYIYTFGGGTKLEIK
B5: KB001 mouse Fab VL S26N (Fab, V domains shown)
VH: EVQLKQSGPGLVAPSQSLSITCTVSGFSLSIYSVHWVRQPPGKGLEWLGMIWGGGSSDYNSALKSRLSISKDNSKSQVFLKMNSLQTDDTAMYYCARNGNFYAMDYWGQGTSVTVSS
VL: QIVLTQSPAIMSASLGERVTMTCTANSSVSSSFLHWYQQKPGSSPQLWIYSTSNLASGVPARFSGSGSGTSYSLTISSMEAEDAATYYCHQYHHSPYIYTFGGGTKLEIK
B6: KB001 mouse Fab VL T24E (Fab, V domains shown)
VH: EVQLKQSGPGLVAPSQSLSITCTVSGFSLSIYSVHWVRQPPGKGLEWLGMIWGGGSSDYNSALKSRLSISKDNSKSQVFLKMNSLQTDDTAMYYCARNGNFYAMDYWGQGTSVTVSS
VL: QIVLTQSPAIMSASLGERVTMTCEASSSVSSSFLHWYQQKPGSSPQLWIYSTSNLASGVPARFSGSGSGTSYSLTISSMEAEDAATYYCHQYHHSPYIYTFGGGTKLEIK
B7: KB001 mouse Fab VL S26D (Fab, V domains shown)
VH: EVQLKQSGPGLVAPSQSLSITCTVSGFSLSIYSVHWVRQPPGKGLEWLGMIWGGGSSDYNSALKSRLSISKDNSKSQVFLKMNSLQTDDTAMYYCARNGNFYAMDYWGQGTSVTVSS
VL: QIVLTQSPAIMSASLGERVTMTCTADSSVSSSFLHWYQQKPGSSPQLWIYSTSNLASGVPARFSGSGSGTSYSLTISSMEAEDAATYYCHQYHHSPYIYTFGGGTKLEIK

7 molecules from patent publication US20240400654A1 can be followed below.

Values joined by “and” are separate entries in the source; they are usually repeats but may differ in a detail not shown here. Equal values may be shown once.

The test deals with HRgpA-6H (Porphyromonas gingivalis) (UniProt P28784). The test can be described thus: ELISA, coated HRgpA-6H.
Sequence of UniProt P28784 (P28784 228-860 limits assumed): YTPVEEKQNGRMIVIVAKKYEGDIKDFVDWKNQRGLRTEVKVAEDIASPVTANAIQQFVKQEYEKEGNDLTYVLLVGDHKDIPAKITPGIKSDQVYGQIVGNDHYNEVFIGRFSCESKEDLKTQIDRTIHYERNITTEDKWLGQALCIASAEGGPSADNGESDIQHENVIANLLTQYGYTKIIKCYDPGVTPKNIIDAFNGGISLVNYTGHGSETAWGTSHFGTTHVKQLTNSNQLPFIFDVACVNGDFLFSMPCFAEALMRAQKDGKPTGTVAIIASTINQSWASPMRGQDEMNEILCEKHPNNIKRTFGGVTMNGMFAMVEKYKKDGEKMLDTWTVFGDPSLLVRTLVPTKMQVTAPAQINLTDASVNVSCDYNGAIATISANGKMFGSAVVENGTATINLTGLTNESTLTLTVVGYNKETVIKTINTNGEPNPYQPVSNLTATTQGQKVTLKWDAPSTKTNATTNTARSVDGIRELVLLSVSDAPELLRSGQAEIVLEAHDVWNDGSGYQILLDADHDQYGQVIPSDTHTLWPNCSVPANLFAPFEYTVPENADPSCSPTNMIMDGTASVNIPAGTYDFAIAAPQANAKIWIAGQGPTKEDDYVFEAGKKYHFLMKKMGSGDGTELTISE
On to B1, for which the OD450 nm was 0.797 and 0.734; the Ratio OD(Variant)/OD(WT) is 1.04 and 0.954.
Take B2: the OD450 nm is 0.818 and 0.827 and 0.775; the Ratio OD(Variant)/OD(WT) was 1.04 and 1.06 and 0.99.
On to B3, for which the OD450 nm is 0.795 and the Ratio OD(Variant)/OD(WT) was determined as 1.03.
In the case of B4, the OD450 nm is 0.823 and 0.801; the Ratio OD(Variant)/OD(WT) was 1.05 and 1.02.
In the case of B5, the OD450 nm is 0.823 and 0.749; the Ratio OD(Variant)/OD(WT) is 1.05 and 0.957.
For B6, the OD450 nm is 0.852 and 0.81; the Ratio OD(Variant)/OD(WT) was 1.11 and 1.05.
Consider B7, for which the OD450 nm was determined as 0.821 and the Ratio OD(Variant)/OD(WT) amounted to 1.05.
